Data reported in a protein production outcome set (Wang et al. 2014).

Assay: label from the status in PepcDB records
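Note: failed if final PepcDB status was selected cloned or expressed and not failed if soluble or beyond.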

Sequence | protein production
MTRQRIAIDMDEVLADTLGAVVKAVNERADLNIKMESLNGKKLKHMIPEHEGLVMDILKEPGFFRNLDVMPHAQEVVKQLNEHYDIYIATAAMDVPTSFHDKYEWLLEYFPFLDPQHFVFCGRKNIILADYLIDDNPKQLEIFEGKSIMFTASHNVYEHRFERVSGWRDVKNYFNSIEK | failed
MASLLPSTGRGENIAGKLLLLIVALLMCIGVVVVYSSGAGWAEQKFSDPQYFLWRQLTFAIAGMAVIFVVGAIDYHIFRKISKLFLFVSIGLLAILLLLKLAHVIHGAARWLGFGPLKFQASDLAKYAIIFHFSRLLSEKRAYIKDLHDGYYPMLVLLMIVVALVALEPNFSTASIIAIIGFTLMFIGGIRIKYLLATASLLIPIAAVFAIAAPYRVARLVSFGGGEKELSYQVRQALLGLGNGGLFGLGLGASKQRELYLPLSYNDFVFVIIGEEYGFIGALVILLLFSGLFACGIIIAKHAPDLFGRYVAIGVTFAIVFFAFINIAVACHLMPTTGVALPFISYGGTALLFNSLGIGLLVSISRYRKKVETIERAQALLESKGGSL | failed
MIIQIVLWDCYTVPYFCFEKRRFMEELKFEELELCPEILKAVKHMGFEEASPIQSKAIPVIMSGKDVIGQAQTGTGKTAAFGIPLLEKIDPKNKKLQAIVLCPTRELAIQVAEEIRNLAKYMHGIKVLPIYGGQEIVKQIRSLKSGTQLVIGTPGRVMDHMRRKTMKMDHVHTIVLDEADEMLNMGFREDIETILEGIPQEHQTVLFSATMPKAILEITKQFQTNAELVKVTKKELTVPNIEQFYYEVKPKNKEEVLSRLLDIYTPKLSVVFCNTKKQVDLLVNGLLGRGYFAAGLHGDMKQAQRDRVMQGFRSGKTDILVCTDVAARGIDVDDVEAVFNYDLPQDDEYYVHRIGRTGRAGRVGRSFSFVSGREVYKLKEIQRYCKTKIYAQKVPSLNDVANTKMENVLEEIEQIIENEDLTKFLQIIEERVNESDYTAMDLAAAFLKYCSGQQETEEKDMEFGDTGAEEAGMVRLFINIGKKNKAKPGDIVGAIAGESGIPGKLIGTIDMFDKYTFVEVPREYARDVLNAMNHTKIKGKSVAVEPANQK | failed
MPTINQLIRYGRKPKKKKSKAPALQGNPQKRGVCIKVSTMTPKKPNSALRKIARVRLSNGIEVTAYIPGIGHNLQEHSVVLVRGGRVKDLPGVRYKIIRGALDAAGVEGRRQSRSKYGAKRPKDQKK | failed
MDLDNLFKTTSSSKDKKNNTIDLVVSDDMAFLQAIDELYAIEGFASPLKVDDIDDESWHKTSAEIKHVVLDLRDCGELVSEVAEISSRLDVSISLIVLSNTDSILMRDKVLSLGANYILWDPELDGLLGALKESGKDTFSPTVKKKSRIAKRVLMLGSKGGVGVSTISAFLSHSLSQQASLKTLLVEHDTLALNSDIFLGLKGLKAQQNSIDLNQSELDAAIAGSYVHPIKDKLDFLALEKNIACISDHADSLFRISNELVDQYNFIIDSLPLNAINELTSEDINERYNRIFVVCEPSVASLRAYHSIKKKLGKAEHRIIFSMTRSQKDYMMPLQGAKEKIKAKDTIDFVYEANLEKLIIQQGIHNTAKIKFTPAIANMVNSLTGKKVKVQKKFAWFKK | failed
MNIIMNINSKAKGFVCGAVAAATYGMNPLFTLPLYKEGMSVDSVLFYRYGFAVLILGILMKVQGQSFALKKNEVLPLIVGGLLFSASSLLLFLSYKHMDAGIASTILFVYPVMVALIMFLFFHEKVSLLTVFCILLALSGIGLLYKGEGGETLSLVGMLLVILSSLSYAVYIVGVNHSTLKLMSTAKLTFYALLFGLSIYIVRLNFCSDLQAVPSLPAWGNILAMAFLPTVISLVCTAVSIHTIGSTSTAILGALEPVTALFFGVMIFGERLTPRLMLGILMILVAVTFIVVGKPLMTFLKEEVAGGMKRKLTR | failed
MTSLNRPPFDFKTQYSLGFNAQDDEIVVDFFCGGGGAGTGLEMGLGRKVSVAKNHSAAAISMHTANHPGAKHFTTDVFDGDPDTECGGKAVGWFHMSPDCTHHSQAAGGQPRKREIRNLSWIGLKWAGKKKPRVVSLENVKQILQWGPLVAKRCKSTGRVVKLGGGIAAPGEVVPVDQQFLVPDPARRGQTWAVFVAELERLGYAVEWRVVRACDFGAPTSRERLFMIARCDGQSIVWPEPTHAKRPSKGQQPLKSAAECIDFSDLGKSIFERKKDLAQATLRRVAKGM | failed
PTSSTTATLVMGDALAVALLKARGFTAEDFALSHPGGALGRKLLLRVSDIMHTGDEIPHVNKHATLRDALLEITRKNLGMTVICDESMKIDGIFTDGDLRRVFDMGGDMRQLGIAEVMTPGGIRVRPGILAVDALNLMQSRHITSVLVADGDQLLGVLHMHDLLRA | failed
MLQNIPTHVIGGPLGAGKTSLIKRLLAQKPAHERWAVLINEFGQIGLDAALLTTTADGIALGEVAGGCLCCVNGVPFQIGLGRLLRKARPDRLLIEPSGLGHPAQLMAQLREAPWRGVLTVQPGVMVLDAAAMATGQPLPATQQEALAEAGLVVMNKSEQLDEAARQALAEQMKPCALLWTRHADLSLSRLPGFVEGTAVDKHAVDNLTLPNSIGRLPALWADPNVPICLSQTSAEGWSVGWRWHPSQQFDLQRVLHWLEGMAWRRAKVVIHSEGGWYSGNVLEGAPLAWQISEWRQDSRLELIFSAPQDVDTLQAQMAGCLA | failed
MSDPGNEQNGDGIDPAIVEVLLVLREAGIENGATPWSLPKIAKRAQLPMSVLRRVLTQLQAAGLADVSVEADGRGHASLTQEGAALAAQLFPDPF | not failed
MFSLNTLLNPPDNLSVGEIILISLILGMLHGVTPDEHTWPITFSYAIGKYSTKGGMKAGFLFSLGFTIQRAFLTTIGFLGLAAIYNQYNLDGPVYAVVGIVMAIAGSYILKGKYIHLPIDALFKSKQHTEEAGKVKDIPIKMTIVHGLVAGFGFGAYATIITFVLAPQLPSVVYAPLPGLFFGLGTMVMQIIFGMIFGNILRLKKMTEEQLSFIARKTAGRVLYYGGLVFLIVGLLIIVLPAIDNFAISTGNPIPNLDAINIGFLLVISVVGVIGISSILYGFREAKRLAKHI | failed
SQKSLKRGQELNNQYETKAKRLKIDPCLVVDSPFNHGFTAQEILKGAKNNGEISFLIRFWHLDQPQVVPSGIAYVEIPQMVLKFYENHCNFHDYLNNYIS | failed
MKIILFLTLIVFTSCELYHYQECVRGTTVLLKEPCPSGTYEGNSPFHPLADNKFALTCTSTHFAFACADGTRHTYQLRARSVSPKLFIRQEEVQQELYSPLFLIVAALVFLILCFTIKRKTE | not failed
MTMAVGTFKQSRFQLPLPRLSVMDRYLFVELFLPFIFGMGMFTSLALSIGTLFDLVRRVTESGLPMDIAVKILFLKMPEFVVLAFPMSMLLASLMAYSRLSSDSELIALRSIGVSIYRLVVPALLFGIVVTGIAFVFNDRITPAASYEALATLDRAIHQDRPPRQEQNIIYPEYGMVRQPDGNEKNILKRLFYAEEFNGSEMKGLTILDRTQSGVNQVLTAERASWNISENTWDFYDGTVYLIAPDGSYRNIVRFRHQQLALPRAPLDLASQERKDGEMTIAQSRRYLEVLRLSGDDKKVRKLEVRIQKKYALPFVCFVFGLIGAAIGVRPQNTNKATSFGICVGLIFFYYLLSFLSESMGIWGALDPFTAAWLPNFLGLIAGTILLVQSSRLR | failed
MLAMHGSKEKMMTSYQTIIQNHQPLAPARYTAKRIIKNDAEALQIATELSQSFKEKSIQRDAERVLPFDEIEAFSQSGLWAITVPKRYGGAEVSSLTLAKIIALFSGVDGSIGQIPQNHFYALEVLRNTGTEQQKQRLYQEVLSGLRLGNALAEFKPKNASLKQTQIKAIETGYVINGEKFYCTGSLFAHRIPTLVIDEEGREYLAFVRSDSEGLSLIDNWTGFGQRVTGSGGVKFTQVFVAAEDVIPFDSAFQHPTLVGPFAQLMHAAIEVGIARAAFEEALKRVHAARPWIDSNVDAAAQDPLTIYEIGRVAADVHASEALLKHAALTIDEVRLNTNVETIAKASIAVAKIRAHSTETALKASSKLIELAGSRGSQSVDGLDRFWRNARVHTLHDAARWKYYFIGNYVLNDIFPPRRGTL | failed
MSCVHYKFSSKLNYDTVTFDGLHISLCDLKKQIMGREKLKAADCDLQITNAQTKEEYTDDNALIPKNSSVIVRRIPIGGVKSTSKTYVISRTEPAMATTKAIDDSSASISLAQLTKTANLAEANASEEDKIKAMMSQSGHEYDPINYMKKPLGPPPPSYTCFRCGKPGHYIKNCPTNGDKNFESGPRIKKSTGIPRSFMMEVKDPNMKGAMLTNTGKYAIPTIDAGRLLFHKLGTMGHKQIDTYFWNRGDVYGATATQITHLREAYAIGKKEKPPFLPEEPSSSSEEDDPIPDELLCLICKDIMTDAVVIPCCGNSYCDECIRTALLESDEHTCPTCHQNDVSPDALIANKFLRQAVNNFKNETGYTKRLRKQLPPPPPPIPPPRPLIQRNLQPLMRSPISRQQDPLMIPVTSSSTHPAPSISSLTSNQSSLAPPVSGNPSSAPAPVPDITATVSISVHSEKSDGPFRDSDNKILPAAALASEHSKGTSSIAITALMEEKGYQVPVLGTPSLLGQSLLHGQLIPTTGPVRINTARPGGGRPGWEHSNKLGYLVSPPQQIRRGERSCYRSINRGRHHSERSQRTQGPSLPATPVFVPVPPPPLYPPPPHTLPLPPGVPPPQFSPQFPPGQPPPAGYSVPPPGFPPAPANLSTPWVSSGVQTAHSNTIPTTQAPPLSREEFYREQRRLKEEEKKKSKLDEFTNDFAKELMEYKKIQKERRRSFSRSKSPYSGSSYSRSSYTYSKSRSGSTRSRSYSRSFSRSHSRSYSRSPPYPRRGRGKSRNYRSRSRSHGYHRSRSRSPPYRRYHSRSRSPQAFRGQSPNKRNVPQGETEREYFNRYREVPPPYDMKAYYGRSVDFRDPFEKERYREWERKYREWYEKYYKGYAAGAQPRPSANRENFSPERFLPLNIRNSPFTRGRREDYVGGQSHRSRNIGSNYPEKLSARDGHNQKDNTKSKEKESENAPGDGKGNKHKKHRKRRKGEESEGFLNPELLETSRKSREPTGVEENKTDSLFVLPSRDDATPVRDEPMDAESITFKSVSEKDKRERDKPKAKGDKTKRKNDGSAVSKKENIVKPAKGPQEKVDGERERSPRSEPPIKKAKEETPKTDNTKSSSSSQKDEKITGTPRKAHSKSAKEHQETKPVKEEKVKKDYSKDVKSEKLTTKEEKAKKPNEKNKPLDNKGEKKKKK | not failed
MSLALYLGNKRMNDMYYTIGQVAKMQHLTISQIRYYDKQGLFPFLQRNEKGDRIFNEEALKYLEMILCLKNTGMPIQKIKQFIDWSMEGDSTILHRLKLMKQQEANVLQLIQDTEKNLKKIQQKIAKYEDEISSANATTKEGHHHHHH | not failed
MTKITLSPQNFRIQKQETTLLKEKSTEKNSLAKSILAVKNHFIELRSKLSERFISHKNTESSATHFHRGSASEGRAVLTNKVVKDFMLQTLNDIDIRGSASKDPAYASQTREAILSAVYSKNKDQCCNLLISKGINIAPFLQEIGEAAKNVGLPGTTKNDVFTPSGAGANPFITPLISSANSKYPRMFINQHQQASFKIYAEKIIMTEVAPLFNECAMPTPQQFQLILENIANKYIQYTP | failed
MGNLPALSWGPAGPLARTCGTSYGASDAQDLRRHAKIGSVELTLLGTGAPAGLPRPDCPCAACATALGEAARAATALLVDGTVLLDLTPGAAFAAARAGRSLGGVRQVLLSHPHNGPAVEVPAGLPQPARVPDGRELALLTGHRVRAMPMDAPGTGYAVTGPDGQRLLYLPPGGAPAGLDETVQPYDMVAADVVGRPDALARLRAVGALGPTTDVIAVHLDHDVPPGVELRRRLAAAGARAVPDGTTLTVGVYEDVPDVPRRTLVLGGARSGKSVEAERRLESFPDVLYVATGGSRGGDTEWAERVSVHRERRPGSWRTVETCDLVPLLKEDGPPLLIDCLSLWLTDAMDSVNAWDDDEWAGGGERALRGRVEELTAAVRETGRTVVAVSNEVGSGIVPATASGRRYRDELGRLNAAFAAECEHLLLVVAGQAMVLRGG | failed
